The values that follow come from paper doi:10.1101/709485 (bioRxiv, 2019).

Experiment [1] deals with SUMO2 (UniProt P61956).
Experiment [2] concerns the target SUMO1 (UniProt P63165). Briefly: NMR titration.
Experiment [3] deals with SUMO2 (UniProt P61956). Briefly: NMR titration.
Experiment [4] concerns the target Chk2-FHA domain (aa:64-212) (UniProt O96017 64-212). The experiment can be described thus: ITC. Background: Isothermal titration calorimetry measures the heat released or taken up as one component is titrated into another.

Non-standard residues stand in square brackets, D forms with d. No end group written: not given here. pT = C[C@@H](OP(=O)(O)O)[C@H](N)C(=O)O

Sequence of SUMO1 (P63165 1-97): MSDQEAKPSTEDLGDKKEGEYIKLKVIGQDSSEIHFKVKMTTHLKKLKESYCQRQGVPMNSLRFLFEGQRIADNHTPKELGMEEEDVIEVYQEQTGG
Sequence of Chk2-FHA domain (aa:64-212) (O96017 64-212): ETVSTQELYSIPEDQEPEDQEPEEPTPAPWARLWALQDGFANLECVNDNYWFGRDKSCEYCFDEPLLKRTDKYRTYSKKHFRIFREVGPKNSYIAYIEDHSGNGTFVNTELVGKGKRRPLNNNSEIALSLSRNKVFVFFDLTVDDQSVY

In the case of “ICP0pm (phosphomimetic full-length ICP0, Ser365 and Ser367 mutated to aspartic acids) (from UniProt P08393 1-775) (enzyme)”, in experiment [1], the STUbL activity on SUMOylated FLAG-PMLs, against ICP0 (fold (against ICP0)) was found to be 5.

As a reminder, the Kd is a measure of binding affinity in units of concentration. A lower Kd goes with a tighter complex. In the case of SLS4 peptide of ICP0, the Kd in experiment [2] worked out at 128 µM; in experiment [3], 81 µM.

For the molecule “pSLS4 peptide of ICP0 (SLS4 phosphorylated at Ser365)”, the Kd is 16 µM in experiment [2] and 7 µM in experiment [3].

Consider “ppSLS4 peptide of ICP0 (SLS4 phosphorylated at Ser365 and Ser367)”, for which the figures for the Kd in experiment [2] and in experiment [3] were 5 µM and 3 µM, respectively.

Usually stoichiometry N stands for a count of units in the complex or per binding partner. For the molecule DDDSASEADSTD[pT]ELFETGL [ICP0-FBM peptide, phosphorylated at Thr67 (FHA Binding Motif, aa: 55-74)], in experiment [4], binding was characterised by a dissociation constant (Kd) of 0.75 ± 0.05 µM, the dH is -5.8 ± 0.1 kcal/mol and the “stoichiometry N” value was 1.23.
